Data taken from the supplement of paper PMC7125110.
± gives the standard error. Fewer inactive variants are shown than the library holds.

B1: glmS ribozyme (parent)
chain: AUAAAAGCGCCAGAACUACAGAAAUGUAGUUGACGAGGAGGAGGUUUAUCGAAUUUUCGGCGGAUGCCUCCAAA

Variants of: B1
Assay: self-cleavage kobs at 2500 uM GlcN6P; higher = faster cleavage; RNA array
Conditions: with glucosamine-6-phosphate
In short: (§1)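 E. coli RNA polymerase transcribed barcoded ribozyme variants in situ on sequenced MiSeq chips, which were tracked via a hybridised Cy3 probe at 37 °C. Tiles were imaged over ~14 h after glucosamine-6-phosphate (40 μM to 10 mM) in HEPES/KCl/Mg(OAc)2 buffer was flowed in. Normalised per-tile medians were fit to one- or two-exponential decays for kobs, and kcat and KM came from weighted Michaelis–Menten fits.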

Point of comparison: AUAAAUGCGCCAGAGUUACAGAAAUGUAGUUGACGAGGAGGAGGUUUAUCGAAUUUUCGGCGGAUGCCUCCAAA, “self-cleavage kobs at 2500 uM GlcN6P” value 5.09e-05 ± 1.6e-05 s⁻¹. Against it:
- AUAAAUGCGCCAGAACUACAGAAAUGUAGUUGACGAGGAGGAGGUUUAUAUAAUUUUCGGCGGAUGCCUCCAAA — lower, < 1e-05 s⁻¹
- AUAAAGGCGCCAGAACUACAGAAAUGUAGUUGACGAGGACGUGGUUUAUCGAAUUUUCGGCGGAUGCCUCCAAA — lower, < 1e-05 s⁻¹
- AUAAAGGCGCCACAACUACAGAAAUGUAGUUGACGAGGAGGAGGUUUAUCGAAUUUUCGGCGGAAGCCCCCAAA — lower, < 1e-05 s⁻¹
- AUAAAGGCGCCAGAACUACAGAAAUGUAGUUGACGAGGAACAGGUUUAUCGAAUUUUCGGCGGAUGCCUCCAAA — lower, < 1e-05 s⁻¹
- AUAAAGGCGCCAGAACUACAGAAAUGUAGUUGACGAGGAGGAGGUUUAUCGAAUUUUCGGAGGAUGCCUCUAAA — lower, < 1e-05 s⁻¹
- AUAAAUGCGCCAGAAGUACAGAAAUGUAGUUGACGUGGAGUACGUUUAUCGAAUUUUCGGCGGAUGCCUCCAAA — lower, < 1e-05 s⁻¹
- AUAAAGGCGCCAGAACUACAGAAAUGUAGUUCACGAGGAGGAGGUUUAUCGAAUUUUCGGCGGAUGUCUCGAAA — lower, < 1e-05 s⁻¹
- AUAAAGGCGCCAGAACUACAGAAAUGUAGUUGACUAGGAGGAGGUUUAUCUAAUUUUUGGCGGAUGCCUCCAAA — lower, < 1e-05 s⁻¹
- AUAAAGGCGCCAGAACUACAGAAAUGUAGUUGACGAGGAAGAGGUUUGUCGAGUUUUCGGCGGAUGUCUCCAAA — lower, < 1e-05 s⁻¹
- AUAAAGGCGCCAGAACUACAGAAAUGUAGCUGAUGAGGAGGAGGUUUAUCGAAUUUUCGGCGGAUGCCUCCAAA — lower, < 1e-05 s⁻¹
- AUAAAUACGCCAGAACUACAGAAAUGUAGUUGACGAGGAGGAGGUUUAUCGAAUUUUCGUCUGAGGCCUCCAAA — lower, < 1e-05 s⁻¹
- AUAAAGGCGCCAGAACUACAGAAAUGUAGUUGACGAGGAUGAGGUUUAUCGGUUUUUCGGCGGAUGCCUCCAAA — lower, < 1e-05 s⁻¹
- AUAAAUGCGCCAGAACUACAGAAAUGUAGUUGACGAGGAGGAGGUUUAUGGAAUGUUCGGCGGGUGUCUCCAAA — 2.6-fold higher, 0.000132 ± 3.6e-05 s⁻¹
- AUAAAGGCGCCAGAAGUACAGAAAUGUAGUUGACGAGGAGGAGGUUUAUCGAACUUUCGGAGGAUGCCUCCAAA — lower, < 1e-05 s⁻¹
- AUAAAGGCGCCAGAAUUACAGAAAUGUACUUGACGAGGAGGAGGUUUAUCGAAUUUUCGGCGGAUGCCUCCAAA — within error, 6.69e-05 ± 2e-05 s⁻¹
- AUAAAUGCGCCAGAACUACAGAAAUGUAGUUGACGAGGAGGAGGUUUAUCGGAUUUUCGGCGGAUGCCCCCAAA — within error, 5.25e-05 ± 2.2e-05 s⁻¹
- AUAAAUGCGCCAGGACUACAGAAAUGUAGUUGACGAGGAGGAGGUUUAUCGAAUUUUCGGCGGAUGCCGCCAAA — 2.9-fold higher, 0.000146 ± 3.5e-05 s⁻¹
- AUAAAGGCGCCAGAACUACAGAAAUGUAGUUGACGAAGAGGAGGUUUAUCGAAUUUUCGGCGGAUUCCUUCAAA — lower, < 1e-05 s⁻¹
- AUAAAUGCGCCAGAACUACAGAAAUGUAGUUGACGGGGAGGAGGUCUAUCGGAUUUUCGGCGGAUGUCUCCAAA — lower, < 1e-05 s⁻¹
- AUAAAUGUGCCAGAACUACAGAAAUGUAGUUGACGAGGAGGAGGUUUAUCGUAUUUUCGGCGGAUGUCUCUAAA — lower, < 1e-05 s⁻¹
- AUAAAGGCGCGAGAACUACAGAAAUGUAGUUGACGAGGAGGAGGAUUAUAGAAUUUUCGGCGGAUGCCUCCAAA — lower, < 1e-05 s⁻¹
- AUAAAUGCGCCAGAGCUACAGAAAUGUAGUUGACGAGGAGGAGGUUUAUCGAGUUUUCGGCGGAUGCCUCCAAA — 5.1-fold higher, 0.000262 ± 4.9e-05 s⁻¹
- AUAAAGGCCCCAGAACUACAGAAAUGUAGUUGACGAGGAGGAGGUUUAUCGAAUUUUCGGCGGAUGCCUGCAAA — lower, < 1e-05 s⁻¹
- AUAAAUGCGCCAGUACUACAGAAAUGUAGUCGACGAGGAGGGGGUUUAUCGCAUUUUCGGCGGCUGCCUCCAAA — lower, < 1e-05 s⁻¹
- AUAAAGGCGCCAGAACUACAGAAAUGUAGUUUACGAGGAGGAGGGUUAUCGAAUUUUCGGCGGAUGCCUCCAAA — lower, < 1e-05 s⁻¹
- AUAAAUGCACCAGAACUACAGAAAUGUAGUUGACGAGGAGGCGGUUUAUCGAAUUUUCGGCGGAUGCCUCCAAA — lower, < 1e-05 s⁻¹
- AUAAAGGCGCCAGAACUACAGAAAUGUAGUAGACGAGGAGGAGGUUUAACGAAUUUUCGGCGGAUGCCUCCAAA — lower, < 1e-05 s⁻¹
- AUAAAGGCGCCAGAACUACAGAAAUGUAGUUGACGAGGAGGAGGUUUAUCGAAUUUUCUGUGGAUGCCUCCAAA — lower, < 1e-05 s⁻¹
- AUAAAUGUGCCAGAAUUACAGAAAUGUAGCUGACGAGGAGGAGUUUUAUCGAAUAUUCGGCGGAUGGCUCCAAA — lower, < 1e-05 s⁻¹
- AUAAAUGCGCCAGAACUACAGAAAUGUAGUUGACGAGGAGGAGGUUUAUCGAAUUUUCGGCGGAUGGCUCAAAA — lower, < 1e-05 s⁻¹
- AUAAAUGGGCCAGAACUACAGAAAUGUAGUUGACGAGGAGGAGCUUUAUCGAGUUUUCGGCGGAUGCCUCCAAA — lower, < 1e-05 s⁻¹
- AUAAAUGCGCCAGUACUACAGAAAUGUAGUUGGCGAGGAGGAGGUUUAUCGAAUUUUCGGUGGAUGCCUCCAAA — lower, < 1e-05 s⁻¹
- AUAAAUGCGACAGAACUACAGAAAUGUAGUUGACGAGGAGGAGGUUUAUCGAAUUUUCGGCGGAUGCCUACAAA — 6.5-fold higher, 0.000332 ± 0.00011 s⁻¹
- AUAAAGGCGCCAGAACUACAGAAAUGUAGUUGACGAGGAGGACGUUUAUCGAAUUUUGGGCGGAUGCCUCCAAA — lower, < 1e-05 s⁻¹

Variants of: B1
Assay: self-cleavage kobs at 10000 uM GlcN6P; higher = faster cleavage; RNA array
Conditions: with glucosamine-6-phosphate
In short: as §1

Point of comparison: AUAAAUGCGCCAGAGCUACAGAAAUGUAGUUGACGAGGAGGAGGUUUAUCGAGUUUUCGGCGGAUGCCUCCAAA, “self-cleavage kobs at 10000 uM GlcN6P” value 0.000262 ± 5.8e-05 s⁻¹. Against it:
- AUAAAGGCGCCAGAAUUACAGAAAUGUACUUGACGAGGAGGAGGUUUAUCGAAUUUUCGGCGGAUGCCUCCAAA — 3.8-fold lower, 6.83e-05 ± 1.6e-05 s⁻¹
